# B1: unnamed (protein)
# chain: MPSADEPDAGTAPPPEPGSNHWERGPEPTAESASMPGPYQVESLTAELPDRVEYLSQTLWYPTDAEPPFAGFAIVPGFVSPEGSIAEWGPFLASHGIVVLTIGTNTGGDLPDVRALALAAAVEVLKGEHTRSGSPLEGSMDTDRMAVGGWSMGGGGTLLAIAADPSLKAGIGLTPWHIGALPFTEISVPTLMFAGTADVLAGGMSQGFYDAIPASTPKTLFEILGADHFYSNNPLLPNIEVGRYGLSWLKVFLEGDERYRQFLSVEPMGASDFRTTAP
# B2: unnamed (protein)
# chain: MTTSNTRTLARLALAAAALLLSAAAQAQANPYQRGPDPTAASLEATAGPFAVATTKVASPSGYGGGTVYYPTTTEGPFGLIAVAPGFTETQSAISWWGPRLASHGFVVITIDTKSTLDQPASRAKQLMAALNYVVALSQTSSSPFYGKVDASRQGVMGHSMGGGGTLEAARDNPTLKAAIPLAPWNTTKNFSKVTVPTLIIACENDAIAPVSSHASPFYDSLPSSLDKAYLELKGADHFCTNSSATNKTVIGKYGVAWMKRFVDNDTRYSPFLCGAPHQADLSGSVISRYKDNCPY
# B3: unnamed (protein)
# chain: MQRKRYNTITNRARASLLAGVGLAFFSVLAQADVLFQENFDSSLGQFTSTGSVSVTTSGARMAGSFGGTDGAITSSPISTVGFTGITLTLTRTTTGLDSGEAGIAEFSTNGSTYTVIQSLQTASGAVTLNLPATAGGQSSLRLRFRVNASSSTEYFTVDSIRLEGTPGSGGGGGGTNPYQRGPAPTTSSLDASRGPFSVGSRTVSDTQVSGYDGGTLWYPTNTSEGPFAAIAIIPGFLSSEGSIREWGPRLASWGFVVITVETLTYGDLPPSRRDQLIAAMNDVLMWSDQSGHPIYGKVDKTRQALMGWSMGGGGTLLGLQENPTRFKAGIGLAPWNSTETFTSSIRQPVLIFACESDIIAPVASHAYPFYRNMPTTNKKAFAEVNNGDHFCANDPRNNSGRLGRYGVSWMKRFLDDDTRFTQFLCGTHSTWTFSRYLSTCPY
# B4: unnamed (protein)
# chain: MKFEPLPGASPAVQPSMRFVLKRAGMATALLLSSFAAQAQVALVQENFSAGLGNFTAVGTVNTSDGSARLQGCYGCTDAVITSNAISTQGFTNLSLSFDRATAGLDTGEAGTAEFSTDGANWTIVESTRTTTTGRVSFALPASAAAQAALRLRFRINASLSSETYVVDNIQLTGTPGDPGDPDDPGANPFAKGPNPTAELLESSTGPFTYSSTVVARSAASGYGGGTIYHPTNVAGPFAAIAISPGYTGTKSTMSWWGQRLASHGFVVITIDTNSTTDQPSSRATQLMASLRQLVTFSNTSSHPIYRKVDPNRLGVMGHSMGGGGTLIAARDNPTLKAAIPLAPWSSVGNTNFSSVQVPTLVVACEADAIAPVAQHASPFYNSISGSTRKAYIEMNNGDHLCVMTGNSYTRIMGKYGVSWMKRFMDNDTRYSPFLCGAPHQADLSNAQVSEYRENCPY
# B5: unnamed (protein)
# chain: MKSQFRKKIKKAKLESALKVFGAFMFASAISTPAAFAINPGGNSDGNSDAGCNSNCSLGIDPTSEMLEKEQGPYVIDYIDIPKSVAGFAGGRIHFPKGLDQRLGLVVIGPGFLYTDESSSRWLGPRLASNGFVTVNINFNTVMDQPDMRANQYDKALDYVIKLSKDSSSPLYGLVDENRLGAAGWSMGGGAALKLSNMRPLKAIMPWAPWYIPAGAFSSVQTPSLIIACKGDIIAPEGIHASAFYNVIPDSTPKEYVKFAKGNHWCSNNRSNYKPLIGKLSIAWFKRFMDEDNRYEKFICDGDIKDESGVAEFRDNCGSWK
# B6: unnamed (protein)
# chain: MKSFLKKIYLGTGMLLVSANALSYTPAPTPNPTPITTPVECQDDCDFSRGPNPTSSSIEGVGPYSVATQNVPSSVSGFGGGTIHYPRGISGTVGAIAVVPGFVSPESSIIWWGPRLASHGFVVITIATNSIFDQPASREAQLGRALDYVINQNNSSNSPISGLVDTSRLGAMGWSMGGGGSLRLASGDRLSAVIPLAPWNEGSRGFRQLETPTLVIACERDLIAPVGVHASPFYNAIPSTTDKAFLEVNNGSHSCANGGGINGGLLSKYGVSWMKRFIDNDTRYQQFLCGPNHAANPAISEYRDTCNY
# B7: unnamed (protein)
# chain: MISTRRFPMRRLAIGLVFVFAAVLGACDWRGPTPTEQLLTASTGPFTVSTLAVPTSAGFGGGTIYYPSTTPGPFAVVSLSPGFTESQSAIAGWGPRLASHGFVTIIINTSNPFIDPSQRSTEQRQALTYVVTQGQTSGSPIFGKVDGQRRGVGGHSMGGGASLISAQADPTIRAVMPMAPWNSSASFPGITSPTLILACQNDGIAPVGSHASPMYNSIPASTKKEYISVAGGDHSCANAPTGGGSAVGKFGVAFLKRFLDNDGRYDPWTCGASKPVAGGSLSEVRSTCPF
# Substrate: BHET
# Conditions: 120 h
row,Protein,plate clearing
1,B1,not clears the plate
2,B2,not clears the plate
3,B3,not clears the plate
4,B4,clears the plate (z > 3 vs empty vector)
5,B5,not clears the plate
6,B6,not clears the plate
7,B7,not clears the plate

# Source: the PETadex activity labels
